Biological target: T1, fibrin (Homo sapiens, UniProt P02671+P02675+P02679)
T1 construct: purchased Calbiochem (EMD Biosciences, Inc., La Jolla, Calif.)
T1 sequence (P02671 36-629 limits assumed): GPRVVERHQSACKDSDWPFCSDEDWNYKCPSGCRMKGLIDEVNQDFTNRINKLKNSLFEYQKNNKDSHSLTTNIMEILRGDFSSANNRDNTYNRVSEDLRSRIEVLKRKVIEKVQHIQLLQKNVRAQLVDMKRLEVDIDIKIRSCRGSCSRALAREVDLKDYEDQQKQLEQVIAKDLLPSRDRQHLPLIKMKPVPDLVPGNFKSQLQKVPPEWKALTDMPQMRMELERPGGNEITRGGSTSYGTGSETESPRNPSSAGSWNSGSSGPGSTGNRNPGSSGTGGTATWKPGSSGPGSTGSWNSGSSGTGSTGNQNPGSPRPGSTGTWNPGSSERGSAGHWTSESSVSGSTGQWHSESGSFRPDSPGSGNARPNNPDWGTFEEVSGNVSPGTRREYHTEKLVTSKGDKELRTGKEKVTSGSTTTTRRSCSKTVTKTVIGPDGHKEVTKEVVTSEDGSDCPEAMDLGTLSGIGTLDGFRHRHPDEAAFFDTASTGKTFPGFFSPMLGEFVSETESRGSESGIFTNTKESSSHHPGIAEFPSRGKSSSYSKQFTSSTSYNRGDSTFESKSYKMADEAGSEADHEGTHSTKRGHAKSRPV
T1 sequence (P02675 45-491 limits assumed): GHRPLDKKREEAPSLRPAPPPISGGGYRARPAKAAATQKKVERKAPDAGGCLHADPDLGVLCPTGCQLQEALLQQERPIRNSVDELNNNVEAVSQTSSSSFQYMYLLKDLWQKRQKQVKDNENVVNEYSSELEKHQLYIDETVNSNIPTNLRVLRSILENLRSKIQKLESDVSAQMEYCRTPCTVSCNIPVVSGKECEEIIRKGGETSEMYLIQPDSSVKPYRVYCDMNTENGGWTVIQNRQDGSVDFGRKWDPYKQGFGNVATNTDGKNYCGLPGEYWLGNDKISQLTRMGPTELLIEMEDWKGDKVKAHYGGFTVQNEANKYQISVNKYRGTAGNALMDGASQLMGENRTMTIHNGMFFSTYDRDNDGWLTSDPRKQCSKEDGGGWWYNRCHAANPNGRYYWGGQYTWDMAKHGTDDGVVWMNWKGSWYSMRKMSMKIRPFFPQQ
T1 sequence (P02679 27-437 isoform P02679-2 limits assumed): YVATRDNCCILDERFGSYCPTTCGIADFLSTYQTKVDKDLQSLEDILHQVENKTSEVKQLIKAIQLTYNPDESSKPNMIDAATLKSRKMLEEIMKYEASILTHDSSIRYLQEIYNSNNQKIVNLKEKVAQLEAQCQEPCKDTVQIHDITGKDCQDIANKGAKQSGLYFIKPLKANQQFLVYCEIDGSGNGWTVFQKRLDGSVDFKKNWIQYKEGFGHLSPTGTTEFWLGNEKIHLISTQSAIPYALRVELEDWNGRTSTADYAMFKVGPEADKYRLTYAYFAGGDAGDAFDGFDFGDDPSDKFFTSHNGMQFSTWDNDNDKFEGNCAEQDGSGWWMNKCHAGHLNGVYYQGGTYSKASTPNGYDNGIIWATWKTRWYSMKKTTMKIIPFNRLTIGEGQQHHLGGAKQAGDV
Test: Solid-phase fibrin-tPA activity assay (SOFIA-tPA), Scatchard analysis
Conditions: 37° C., read-out: KD of fibrin binding
Experimental: tPA-binding to fibrin was tested using a modification of the solid-phase fibrin-tPA activity assay (SOFIAtPA) developed by Angles-Cano (1986). This method combines a quantitative enzyme-linked immunosorbent assay (ELISA) technique, which enables calculation of ligand binding affinities, with a chromogenic measurement of enzyme specific activity. The latter provides quantitation of tPA bound to fibrin in the microtiter well, which permits the determination of binding affinities and immobilized fibrin concentration by classic Scatchard analysis.
Nunc Maxisorb microtiter plates were coated overnight at 4° C. with human fibrinogen (Calbiochem; 2.5.tg in 50 p.l 0.05 M sodium bicarbonate, pH 9.6, per well). Background wells were left uncoated. […]
About 200 μl of substrate-zymogen reagent (0.33 μM plasminogen+0.33 mM D-Val-Leu-Lys-p-nitroanilide in 0.02 M PBS, pH 7.3, with 0.1 M sodium chloride) was added to each sample well and to 12 additional wells (standard wells). […] The plates were then read at 405 nm in a Coulter microplate reader. Based on the response of the standards and the net OD of samples corrected for background absorbance in albumin-coated wells, concentrations of bound active tPA were calculated; Scatchard analyses were then performed and binding affinities determined.

tPA: Recombinant tissue-plasminogen activator (Activase®, Genentech Inc.), used as the thrombolytic agent [reference compound]
Kd: 2.61 nM

Source: patent US9814672B2, “Echogenic vehicle for clinical delivery of plasminogen activator and other fibrin-binding therapeutics to thrombi” (priority 2007, dated 2017)
